Assays:
[1] = molecular target: DLC1 TBS (465-489C) synthetic peptide, fluorescein-labelled; experiment: fluorescence polarisation; R7R8 serially diluted (maximum 160 μM) into 0.5 μM fluorescein-labelled peptide; PBS with 1 mM TCEP and 0.02% Tween-20; room temperature; triplicate; one-site total binding model
[2] = molecular target: RIAM TBS1 (4-30C) synthetic peptide, fluorescein-labelled; experiment: as above
[3] = molecular target: talin 1 R7R8 domain protein (mouse) (mouse); experiment: fluorescence polarisation; competition: R7R8 (30 μM) pre-incubated with DLC1 TBS-F (1 μM) 20 min at room temperature, diluted 1:2 into unlabeled peptide at twofold increasing concentrations up to 160 μM; one-site Ki fit

“talin 1 R7R8 domain protein (mouse) (domain or fragment)” was tested, and the Kd [1] was 4.92 µM and the Kd [2] was 9.21 µM.

In the case of SEDIDQMFSTLLGEMDLLTQSLGVDTC [RIAM TBS1 (4-30C) synthetic peptide, unlabeled], the Ki [3] is reported as 90 µM.

— publication PMC12412656
